Test results published in patent US11957762B2, “Immune tolerant and non-immune tolerant elastin-like recombinant peptides and methods of use” (University of Utah Research Foundation, priority 2015, dated 2024).

B1: ST-NP: stable NP of the fusion iTEPB70-iTEPA56-pOVA (SEQ ID NO: 60) (protein)
chain: GGAGVPGGAGVPGGAGVPGGAGVPGGAGVPGGAGVPGGAGVPGGAGVPGGAGVPGGAGVPGGAGVPGGAGVPGGAGVPGGAGVPGGAGVPGGAGVPGGAGVPGGAGVPGGAGVPGGAGVPGGAGVPGGAGVPGGAGVPGGAGVPGGAGVPGGAGVPGGAGVPGGAGVPGGAGVPGGAGVPGGAGVPGGAGVPGGAGVPGGAGVPGGAGVPGGAGVPGGAGVPGGAGVPGGAGVPGGAGVPGGAGVPGGAGVPGGAGVPGGAGVPGGAGVPGGAGVPGGAGVPGGAGVPGGAGVPGGAGVPGGAGVPGGAGVPGGAGVPGGAGVPGGAGVPGGAGVPGGAGVPGGAGVPGGAGVPGGAGVPGGAGVPGGAGVPGGAGVPGGAGVPGGAGVPGGAGVPGGAGVPGGAGVPGGAGVPGGAGVPGGGVLPGVGGVLPGVGGVLPGVGGVLPGVGGVLPGVGGVLPGVGGVLPGVGGVLPGVGGVLPGVGGVLPGVGGVLPGVGGVLPGVGGVLPGVGGVLPGVGGVLPGVGGVLPGVGGVLPGVGGVLPGVGGVLPGVGGVLPGVGGVLPGVGGVLPGVGGVLPGVGGVLPGVGGVLPGVGGVLPGVGGVLPGVGGVLPGVGGGGGGGGGCGGGGGGGGCGGGGGGGGCGGGGGGGGCGESIINFEKLTESIINFEKLTGG
B2: RED-NP: reductive-environment dependable NP, disulfide stabilized fusion iTEPB70-iTEPA28-(G8C)4-pOVA (SEQ ID NO: 61) (protein)
chain: GGAGVPGGAGVPGGAGVPGGAGVPGGAGVPGGAGVPGGAGVPGGAGVPGGAGVPGGAGVPGGAGVPGGAGVPGGAGVPGGAGVPGGAGVPGGAGVPGGAGVPGGAGVPGGAGVPGGAGVPGGAGVPGGAGVPGGAGVPGGAGVPGGAGVPGGAGVPGGAGVPGGAGVPGGAGVPGGAGVPGGAGVPGGAGVPGGAGVPGGAGVPGGAGVPGGAGVPGGAGVPGGAGVPGGAGVPGGAGVPGGAGVPGGAGVPGGAGVPGGAGVPGGAGVPGGAGVPGGAGVPGGAGVPGGAGVPGGAGVPGGAGVPGGAGVPGGAGVPGGAGVPGGAGVPGGAGVPGGAGVPGGAGVPGGAGVPGGAGVPGGAGVPGGAGVPGGAGVPGGAGVPGGAGVPGGAGVPGGAGVPGGAGVPGGAGVPGGAGVPGGGVLPGVGGVLPGVGGVLPGVGGVLPGVGGVLPGVGGVLPGVGGVLPGVGGVLPGVGGVLPGVGGVLPGVGGVLPGVGGVLPGVGGVLPGVGGVLPGVGGVLPGVGGVLPGVGGVLPGVGGVLPGVGGVLPGVGGVLPGVGGVLPGVGGVLPGVGGVLPGVGGVLPGVGGVLPGVGGVLPGVGGVLPGVGGVLPGVGGCGCGCGCGESIINFEKLTESIINFEKLTGG
B3: G(GAGVPG)70G(GVLPGVG)28G(ESIINFEKLT)2GG (protein)
chain: GGAGVPGGAGVPGGAGVPGGAGVPGGAGVPGGAGVPGGAGVPGGAGVPGGAGVPGGAGVPGGAGVPGGAGVPGGAGVPGGAGVPGGAGVPGGAGVPGGAGVPGGAGVPGGAGVPGGAGVPGGAGVPGGAGVPGGAGVPGGAGVPGGAGVPGGAGVPGGAGVPGGAGVPGGAGVPGGAGVPGGAGVPGGAGVPGGAGVPGGAGVPGGAGVPGGAGVPGGAGVPGGAGVPGGAGVPGGAGVPGGAGVPGGAGVPGGAGVPGGAGVPGGAGVPGGAGVPGGAGVPGGAGVPGGAGVPGGAGVPGGAGVPGGAGVPGGAGVPGGAGVPGGAGVPGGAGVPGGAGVPGGAGVPGGAGVPGGAGVPGGAGVPGGAGVPGGAGVPGGAGVPGGAGVPGGAGVPGGAGVPGGAGVPGGAGVPGGAGVPGGESIINFEKLTESIINFEKLTGG

Legend:
[1] = test system: endothelial cells (EA.hy926 and bEnd.3) and fibroblasts (3T3); test: Cellular uptake of iTEP-vaccine fusions by control cells; assay type: cell-based; details: 5 μM coumarin-labeled fusions, 4 h
Experimental: Cellular uptake of iTEP-vaccine fusions. DC2.4, EA.hy926, bEnd.3, 3T3 cells were plated at 1.5×10^5/500 μL/well in 24-well plates. When the cells attached to the bottom of the plate (4 h or overnight), the media was replaced with 500 μL of fresh media with or without 5 μM of coumarine labeled iTEP-vaccine fusions. After being cultured for 4 h at 37° C. in 5% CO2, the cells were collected and washed twice with PBS. The fluorescence of the cells was measured by flow cytometry (collecting 5×10^4 events per sample).

[2] = Response of NPs to reductants (DLS after GSH or DTT); assay type: physicochemical; details: 16 hours, by number distribution
Experimental: The next set of experiments tested whether disulfide bonds inside the new NP were reducible and if the NP structure was dissolvable in a reductive environment like cytosol (glutathione, GSH 1-10 mM) (Smith et al., Toxicol Appl Pharmacol, 1996; 140(1):1-12; Wu et al., J Nutr, 2004; 134(3):489-92). The new NP and the ST-NP were treated using two concentrations of GSH, at 37° C. overnight and then analyzed particle structure changes of both NPs by DLS. These concentrations mimic GSH concentrations in either cytoplasm (GSH 1-10 mM) or the extracellular (GSH 1-10 μM) environment (Smith et al., Toxicol Appl Pharmacol, 1996; 140(1):1-12; Cantin et al., Appl Physiol (1985), 1987, 63(1):152-7; Jones et al., Clin Chim Acta, 1998; 275(2):175-84). Both NPs were stable at 10 μM of GSH. The new NP lost its particle structure after being treated with 1 mM of GSH (Table 4). […] In contrast, the ST-NP, as a control, maintained its particle structure regardless of its incubation with any concentration of GSH. Similar results emerged when dithiothreitol (DTT) was used as the reductant except that the new iTEP-NP was not stable in 10 μM of DTT (Table 4). […] The new NP was named the reductive-environment dependable NP or RED-NP.

[3] = Quantification of free sulfhydryl groups (Ellman's method); assay type: physicochemical
Experimental: Quantification of free sulfhydryl groups of RED-NP after reducing treatments. Twenty mg of RED-NP were dissolved in 2 mL of H2O and treated with 1 mM of GSH for 16 h. The solution was then dialyzed (membrane cutoff MW: 3,500 Dalton) in deionized water at 4° C. for 24 h. Then the sample was concentrated to 0.5 mL using Amicon centrifugal filter devices (Millipore, USA). Numbers of free sulfhydryl groups of RED-NP were determined by Ellman's method. Briefly, 250 μL of sample and 50 μL of Ellman's reagent (Thermo Scientific, USA) were added to 2.5 mL of reaction buffer (0.1 M sodium phosphate, pH 8.0, 1 mM EDTA). After 15 min of incubation at room temperature, the OD412 was measured. To generate a standard curve of free sulfhydryl groups, OD412 of serial dilutions of cysteine hydrochloride monohydrate was measured. The serial OD412 values were plotted against concentrations of cysteine hydrochloride monohydrate to generate a standard curve. Concentrations of free sulfhydryl groups in the RED-NP samples were determined from the standard curve and used to calculate numbers of free sulfhydryl groups per iTEP-vaccine fusion molecules.

[4] = Thermally-induced reversible phase transition (turbidity OD350 vs temperature); assay type: physicochemical
Text: Characterization of thermally-induced, reversible, inverse phase transition of iTEPs and the iTEPB-iTEPA-pOVA fusion. The phase transitions of iTEP or iTEP fusions were characterized by turbidity changes of sample solutions as a function of temperature. Specifically, the optical density at 350 nm (OD350) of a sample solution was monitored using an UV-visible spectrophotometer equipped with a multi-cell thermoelectric temperature controller (Cary 300, Varian Instruments, Walnut Creek, CA) while the solution was heated from 20° C. to 80° C. and then cooled to 20° C. at a rate of 1° C./min. The maximum first derivative of the turbidity curve of a sample was identified. The transition temperature (Tt) of the sample is the temperature that corresponds to the maximum derivative.

Molecule | uptake by endothelial cells and fibroblasts relative to the MS-NP [1] | Hydrodynamic diameter (nm) ([2]; DTT 10 μM) | Hydrodynamic diameter (nm) ([2]; DTT 1000 μM) | Hydrodynamic diameter (nm) ([2]; GSH 10 μM) | Hydrodynamic diameter (nm) ([2]; GSH 1000 μM) | Hydrodynamic diameter (nm) ([2]; no reductant (0 μM)) | free sulfhydryl groups, on average ([3]; after the treatment of 1 mM of GSH) | free sulfhydryl groups, on average ([3]; before GSH treatment) | temperature of sharp increase of turbidity (formation of aggregates) [4] | Tt (cooling) ([4]; 25 μM in H2O) | Tt (heating) ([4]; 25 μM in H2O)
B1 | either the same amount or less | 52.56 ± 13.67 (NP) nm | 53.10 ± 13.56 (NP) nm | 52.23 ± 13.59 (NP) nm | 50 ± 13.62 (NP) nm | 54.82 ± 12.89 (NP) nm | – | – | – | – | –
B2 | – | 8.75 ± 2.03 nm | 6.43 ± 2.01 nm | 37.98 ± 6.72 (NP) nm | 8.35 ± 1.04 nm | 47.11 ± 13.18 (NP) nm | two | zero | – | – | –
B3 | – | – | – | – | – | – | – | – | 70 °C | 73.70 ± 0.23 °C | 75.40 ± 0.14 °C
